Measured values from the supplement of paper PMC10567573.

B1: HDAC6 (parent)
chain: ACAQLATGAACRLVEAVLSGEVLN

Variants of: B1
Assay: protein stability index of a GFP-peptide fusion (GPS, HEK-293T) (PSI 1-6); higher = more stable
Conditions: c terminus: a fixed tail appended
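Also: lentivirally expressed fusions sorted by FACS into six bins by GFP to DsRed ratio, PSI derived from sequencing read proportions per bin multiplied by bin number.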

Row | Variant | protein stability index
1 | ACAQLKTGAACRLVEAVLSGEVLN [A6K] | 1.19
2 | ACAQLCTGAACRLVEAVLSGEVLN [A6C] | 2.49
3 | ACAQLTTGAACRLVEAVLSGEVLN [A6T] | 1.39
4 | ACAQLDTGAACRLVEAVLSGEVLN [A6D] | 2.11
5 | ACAQLNTGAACRLVEAVLSGEVLN [A6N] | 1.48
6 | ACAQLITGAACRLVEAVLSGEVLN [A6I] | 3.57
7 | ACAQLGTGAACRLVEAVLSGEVLN [A6G] | 2.25
8 | ACAQLATGAACRLVEAVLSGDVLN [E21D] | 2.6
9 | ACAQLATGAACRLVEAVLSGNVLN [E21N] | 3.96
10 | ACAQLATGAACRLVEAVLSGKVLN [E21K] | 1.09
11 | ACAQLATGAACRLVEAVLSGYVLN [E21Y] | 3.01
12 | GCAQLATGAACRLVEAVLSGEVLN [A1G] | 1
13 | KCAQLATGAACRLVEAVLSGEVLN [A1K] | 1.92
14 | PCAQLATGAACRLVEAVLSGEVLN [A1P] | 1.53
15 | ACAQLATGAAPRLVEAVLSGEVLN [C11P] | 2.27
16 | ACAQLATGAACRKVEAVLSGEVLN [L13K] | 3.91
17 | ACAQLATGAACRNVEAVLSGEVLN [L13N] | 2.06
18 | ACAQLATGAACRTVEAVLSGEVLN [L13T] | 1.93
19 | ACAQLATGAACALVEAVLSGEVLN [R12A] | 2.3
20 | ACAQLATGAACSLVEAVLSGEVLN [R12S] | 1.65
21 | ACAQLATGAACGLVEAVLSGEVLN [R12G] | 1.26
22 | ACAQLATGAACRLVEAVLSGEVAN [L23A] | 2.22
23 | ACAQLATGAACRLVEAVLSGEVMN [L23M] | 4.41
24 | ACAQLATGAACRLVEAVLSGEVYN [L23Y] | 3.97

Row | Variant | protein stability index
25 | ACAQLATGAACRLVEAVLSGEVWN [L23W] | 2.42
26 | ACAQLATGAACRLVEAVLSGEVEN [L23E] | 2.83
27 | ACAQLATGAACRLVEAVLSREVLN [G20R] | 2.86
28 | ACAQLATGAACRLVEAVLSIEVLN [G20I] | 2.15
29 | ACAQLATGAACRLVEAVLSFEVLN [G20F] | 3.97
30 | ACAQLATGAACRLVEAVLSLEVLN [G20L] | 3.07
31 | ACAQLATGAACRLVEAVLSEEVLN [G20E] | 1.43
32 | ACAQLATGAACRLQEAVLSGEVLN [V14Q] | 2.74
33 | ACAQLATGAACRLAEAVLSGEVLN [V14A] | 2.05
34 | ACAQLATGAACRLSEAVLSGEVLN [V14S] | 2.15
35 | ACAQLATGAACRLKEAVLSGEVLN [V14K] | 1.97
36 | ACAQLATGAACRLTEAVLSGEVLN [V14T] | 1.75
37 | ACAQLATGAACRLDEAVLSGEVLN [V14D] | 2.53
38 | ACAQLATGARCRLVEAVLSGEVLN [A10R] | 1.7
39 | ACAQLATGAKCRLVEAVLSGEVLN [A10K] | 2.38
40 | ACAQLATGAYCRLVEAVLSGEVLN [A10Y] | 1.49
41 | ACAQLATGACCRLVEAVLSGEVLN [A10C] | 2.16
42 | ACAQLATGAQCRLVEAVLSGEVLN [A10Q] | 1.71
43 | ACAQLATGAGCRLVEAVLSGEVLN [A10G] | 1.43
44 | ACAQIATGAACRLVEAVLSGEVLN [L5I] | 1.51
45 | ACAQPATGAACRLVEAVLSGEVLN [L5P] | 2.2
46 | ACAQEATGAACRLVEAVLSGEVLN [L5E] | 2.48
47 | ACAQQATGAACRLVEAVLSGEVLN [L5Q] | 2.67
48 | ACAQVATGAACRLVEAVLSGEVLN [L5V] | 1.16

Row | Variant | protein stability index
49 | ACAQLATGAACRLVEAVLAGEVLN [S19A] | 4.12
50 | ACAQLATGAACRLVEAVLPGEVLN [S19P] | 2.98
51 | ACAQLASGAACRLVEAVLSGEVLN [T7S] | 2.78
52 | ACAQLAMGAACRLVEAVLSGEVLN [T7M] | 3.57
53 | ACAQLADGAACRLVEAVLSGEVLN [T7D] | 1.79
54 | ACAQLATGAACRLVNAVLSGEVLN [E15N] | 2.52
55 | ACAQLATGAACRLVPAVLSGEVLN [E15P] | 1.05
56 | ACAQLATGAACRLVEAVLSGEVLF [N24F] | 1.85
57 | ACAQLATGAACRLVEAVLSGEVLD [N24D] | 1.87
58 | ACAQLATCAACRLVEAVLSGEVLN [G8C] | 2.74
59 | ACAQLATTAACRLVEAVLSGEVLN [G8T] | 3.69
60 | ADAQLATGAACRLVEAVLSGEVLN [C2D] | 2.98
61 | ATAQLATGAACRLVEAVLSGEVLN [C2T] | 3.63
62 | ASAQLATGAACRLVEAVLSGEVLN [C2S] | 1.08
63 | AEAQLATGAACRLVEAVLSGEVLN [C2E] | 2
64 | AQAQLATGAACRLVEAVLSGEVLN [C2Q] | 2.97
65 | ACAQLATGAACRLVELVLSGEVLN [A16L] | 2.77
66 | ACAQLATGAACRLVEYVLSGEVLN [A16Y] | 3.51
67 | ACAQLATGAACRLVEAPLSGEVLN [V17P] | 2.5
68 | ACAQLATGEACRLVEAVLSGEVLN [A9E] | 3.49
69 | ACAQLATGPACRLVEAVLSGEVLN [A9P] | 2.4
70 | ACAQLATGIACRLVEAVLSGEVLN [A9I] | 3.52
71 | ACAQLATGYACRLVEAVLSGEVLN [A9Y] | 1.68
72 | ACAQLATGDACRLVEAVLSGEVLN [A9D] | 2.61

Row | Variant | protein stability index
73 | ACAQLATGAACRLVEAVLSGEALN [V22A] | 3.65
74 | ACAQLATGAACRLVEAVLSGEYLN [V22Y] | 3.8
75 | ACAQLATGAACRLVEAVLSGEDLN [V22D] | 2.37
76 | ACAQLATGAACRLVEAVLSGEGLN [V22G] | 2.44
77 | ACAQLATGAACRLVEAVLSGEKLN [V22K] | 1.01
78 | ACAQLATGAACRLVEAVLSGELLN [V22L] | 2.09
79 | ACAQLATGAACRLVEAVLSGEELN [V22E] | 1.84
80 | ACWQLATGAACRLVEAVLSGEVLN [A3W] | 2.17
81 | ACNQLATGAACRLVEAVLSGEVLN [A3N] | 1.68
82 | ACAQLATGAACRLVEAVKSGEVLN [L18K] | 2.1
83 | ACAQLATGAACRLVEAVHSGEVLN [L18H] | 2.47
84 | ACAQLATGAACRLVEAVCSGEVLN [L18C] | 1.45
85 | ACAQLATGAACRLVEAVASGEVLN [L18A] | 1.69
86 | ACAQLATGAACRLVEAVMSGEVLN [L18M] | 3.05
87 | ACAQLATGAACRLVEAVQSGEVLN [L18Q] | 2.2
88 | ACAQLATGAACRLVEAVYSGEVLN [L18Y] | 3.82
89 | ACAQLATGAACRLVEAVPSGEVLN [L18P] | 3.73
90 | ACAQLATGAACRLVEAVSSGEVLN [L18S] | 2.04
91 | ACAILATGAACRLVEAVLSGEVLN [Q4I] | 1.55
92 | ACAELATGAACRLVEAVLSGEVLN [Q4E] | 2.92
93 | ACAKLATGAACRLVEAVLSGEVLN [Q4K] | 2.69
94 | ACAYLATGAACRLVEAVLSGEVLN [Q4Y] | 4.38
